The results in this text go back to publication PMC4562236.

In data set [1] the test system is T1, His-ArsR (Bacillus sp. CDB3), ORF:1234e343.
T1 sequence: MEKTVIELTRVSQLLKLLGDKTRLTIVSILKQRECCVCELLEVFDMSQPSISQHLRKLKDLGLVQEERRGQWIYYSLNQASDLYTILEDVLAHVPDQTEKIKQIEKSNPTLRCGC
Kind of data set: EMSA. The conditions noted are these: 10 mM Tris-HCl pH 7.6, 80 mM KCl, 0.2 mM EDTA, 0.2 mM DTT, 10% glycerol, 0.75 µM BSA, 30 µL, on ice 30 min; 6% native acrylamide gel in TBE pH 8.3. For orientation: In EMSA bound probe runs differently from free probe, usually more slowly.

For data set [2], the system named is T2, His-ArsD (Bacillus sp. CDB3), ORF:bd8c364d.
T2 sequence: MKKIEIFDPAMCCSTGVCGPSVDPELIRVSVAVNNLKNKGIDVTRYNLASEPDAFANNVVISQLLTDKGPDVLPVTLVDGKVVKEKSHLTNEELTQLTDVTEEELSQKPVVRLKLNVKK
Kind of data set: EMSA. The conditions noted are these: 10 mM Tris-HCl pH 7.6, 80 mM KCl, 0.2 mM EDTA, 0.2 mM DTT, 10% glycerol, 0.75 µM BSA, 30 µL, on ice 30 min; 6% native acrylamide gel in TBE pH 8.3.

Take “TGAGACTGCTATGAAAGAAAACGGTGTTTCAACATTACGTTTTACATTTGATGGTGCTGGATGCTGTGGCCCTAGTTACGGTATTAATTTAGGTGAAGCACAAGAAAATGATGTCACAGAAACAGTCTAGAC (double strand) [proN]”: the binding result in data set [1] is on record as “no binding”.
As for “TTCAGTTGAATATATAAGCGGTTAATTATATACTTATTTCAAGAGGGAGAGAAAATTAAATATGAATCCATTTAATGAATATTACGTTTAATTTTTACTCAACATATAAGTATATGCTTATGCAATTATGAAAAGGAGGTATAGATATGGCTCTAGATA (double strand) [proR]”, the binding result is “no binding” in data set [2] and “binds” in data set [1].
